Patent publication US20200078439A1 (IMMATICS BIOTECHNOLOGIES, published 2020)

Target: T1, HLA-A*0211 (purified recombinant HLA-A*0211 heavy chain with beta-2 microglobulin) (human)
T1 construct: MHC class I molecule without peptide; folds with b2m in a peptide-dependent manner, and folded complex is measured by ELISA
Test: ELISA-based refolding assay: recombinant HLA-A*0211 heavy chain + b2m + graded doses of peptide

Binder	binding result
KLDRERAKN (also called nonamer BIR-11) [BIR-11 (C-terminal nonamer of BIR-004: KLDRERAKN)]	binds
LKLDRERAKN [BIR-13 (C-terminal decamer of BIR-004: LKLDRERAKN)]	binds
LDRERAKN [BIR-12 (C-terminal octamer of BIR-004: LDRERAKN)]	no binding
